Results on four molecules are retold here after patent publication US20180282719A1 (published 2018).

The target of assay [1] is T1, recombinant soluble human IL-6 receptor (SR344) (human, UniProt P08887 20-344, biotinylated (sites not given) where immobilized via streptavidin or used in phage ELISA).
T1 construct: also called soluble IL-6 receptor; membrane-type IL-6 receptor (when biotinylated and immobilized on the chip)
T1 sequence (looked up): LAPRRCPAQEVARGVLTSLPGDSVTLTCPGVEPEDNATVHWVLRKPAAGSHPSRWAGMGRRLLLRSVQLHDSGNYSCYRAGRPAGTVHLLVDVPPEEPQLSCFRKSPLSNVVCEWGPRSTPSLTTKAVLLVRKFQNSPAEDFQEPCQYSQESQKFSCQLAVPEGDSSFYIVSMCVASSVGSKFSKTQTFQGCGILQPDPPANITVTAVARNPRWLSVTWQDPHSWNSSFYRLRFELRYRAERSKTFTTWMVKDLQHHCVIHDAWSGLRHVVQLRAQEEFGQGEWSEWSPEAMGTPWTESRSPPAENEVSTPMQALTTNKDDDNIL
In words: SPR Biacore T100, antibody on protein A/G chip, SR344 analyte, pH 5.8, 37 C. The protocol:
(§1) Kinetic analysis of antigen-antibody reactions at pH 7.4 and pH 5.8 was carried out using a Biacore T100™ surface plasmon resonance system (GE Healthcare) for the four types of antibodies prepared: WT-IgG1, H54/L28-IgG1, H170/L82-IgG1, and Fv4-IgG1 (buffer: 10 mM MES (pH 7.4 or pH 5.8), 150 mM NaCl, 0.05% Surfactant P20 (polyoxyethelene sorbitan monolaurate)). The antibodies were bound to a sensor chip on which recomb-protein A/G (Pierce) was immobilized by amine coupling, and SR344 adjusted to an appropriate concentration was injected therein as an analyte. The association with and dissociation from SR344 of each type of antibody were observed on a real-time basis. All the measurements were carried out at 37° C. Association rate constants kₐ (1/Ms) and dissociation rate constants kd (1/s) were calculated using Biacore T100™ Evaluation Software (GE Healthcare), and dissociation constants KD (M) were calculated based on those values (Table 17).
A general note: In SPR one partner is held on a chip, and binding of the other changes the refractive index at the surface.

Assay [2] deals with T1, recombinant soluble human IL-6 receptor …. In words: SPR Biacore T100, antibody on protein A/G chip, SR344 analyte, pH 7.4, 37 C. The protocol: as §1
Assay [3] has the same target. In words: SPR Biacore T100, biotinylated SR344 on streptavidin chip (model of membrane-type IL-6 receptor), antibody as analyte, bound at pH 7.4, dissociation at pH 5.8, 37 C.
Assay [4] shares this target. In words: SPR Biacore T100, biotinylated SR344 on streptavidin chip (model of membrane-type IL-6 receptor), antibody 0.25 ug/mL as analyte, bound at pH 7.4, dissociation at pH 7.4, 37 C.
The target is the same in assay [5]. In words: SPR Biacore T100, antibody on protein A/G chip, SR344 analyte, 37 C, ratio of pH 5.8 to pH 7.4. The protocol: Kinetic analyses of antigen-antibody reactions at pH 5.8 and pH 7.4 were carried out using a Biacore™ T100 surface plasmon resonance system (GE Healthcare) on the four antibodies: humanized PM1 antibody (WT) and H3pI/L73, CLH5/L73, and H170/L82 produced in Examples 2 and 4 (buffer: 10 mM MES (pH 7.4 or pH 5.8), 150 mM NaCl, and 0.05% TWEEN® 20 (polyoxyethelene sorbitan monolaurate)). Various antibodies were bound onto a sensor chip immobilized with recomb-protein A/G (Pierce) by amine coupling. SR344 adjusted to concentrations of 9.8 to 400 nM was injected to the chip as an analyte. […] All the measurements were carried out at 37° C. Association rate constants kₐ (1/Ms) and dissociation rate constants kd (1/s) were calculated using Biacore T100™ Evaluation Software (GE Healthcare), and dissociation constants KD (M) were calculated on the basis of those values (Table 5). Moreover, the ratio of the affinities at pH 5.8 and pH 7.4 were calculated for each clone to evaluate pH-dependent binding. All the measurements were carried out at 37° C.

Numbering of substitutions follows the chain as printed.

B1: Fv4-IgG1 (antibody)
heavy: not shown
light: DIQMTQSPSSLSASVGDSVTITCQASTDISSHLNWYQQKPGKAPELLIYYGSHLLSGVPSRFSGSGSGTDFTFTISSLEAEDAATYYCGQGNRLPYTFGQGTKVEIERTVAAPSVFIFPPSDEQLKSGTASVVCLLNNFYPREAKVQWKVDNALQSGNSQESVTEQDSKDSTYSLSSTLTLSKADYEKHKVYACEVTHQGLSSPVTKSFNRGEC
notes: VH3-IgG1 / VL3-CK
As a reminder, the Kd is the concentration at which binding is half-saturated. As a reminder, the koff is a measure of how fast the partners let go of each other. A word on the kon: it is the rate constant with which the complex forms. Take B1: the Kd in assay [1] stood at 26 nM; in assay [2], 0.97 nM. In addition, the koff in assay [1] was 0.037 s⁻¹; in assay [2] it was 0.00095 s⁻¹; in assay [3], 0.0026 s⁻¹; in assay [4], 0.00047 s⁻¹. The kon in assay [1] stood at 1.4e+06 M⁻¹ s⁻¹; in assay [2], 980000 M⁻¹ s⁻¹.

B2: H3pI/L73 (antibody, IgG1, V domains shown)
VH: QVQLQESGPGLVKPSETLSLTCAVSGHSISHDHAHSWVRQPPGEGLEWIGYISYSGITNYNPSLKGRVTISRDTSKNQFSLKLSSVTAADTAAYYCARSLARTTAMDYWGEGTLVTVSS
VL: DIQMTQSPSSLSASVGDSVTITCQASQHISSHLNWYQQKPGKAPELLIYYGSHLHSGVPSRFSGSGSGTDFTFTISSLEAEDAATYYCGQGNRLPYTFGQGTKVEIE
notes: tested as IgG1; also called H3pI/L73-IgG1; H3pl/L73
On to B2, for which the “KD (pH 5.8)/KD (pH 7.4)” value in assay [5] worked out at 41.3. Besides, the koff in assay [3] worked out at 0.00067 s⁻¹; in assay [4], 0.00026 s⁻¹.

B3: H170/L82 (antibody, IgG1, V domains shown)
VH: B2 VH with D32H, N59H, S63H, S99V, T103I, Y108H
VL: B2 VL with H28D
notes: expressed and purified as IgG (IgG1); also called H170/L82-IgG1
Regarding B3, in assay [1], the Kd came to 100 nM, the koff amounted to 0.013 s⁻¹ and the kon is 120000 M⁻¹ s⁻¹. Also, in assay [2], the Kd worked out at 1.6 nM, the koff stood at 0.0011 s⁻¹ and the kon worked out at 670000 M⁻¹ s⁻¹. For the same molecule, the “KD (pH 5.8)/KD (pH 7.4)” value in assay [5] came to 394.

B4: humanized PM1 antibody (wild type, WT) (antibody, human IgG1, kappa, V domains shown)
VH: QVQLQESGPGLVRPSQTLSLTCTVSGYSITSDHAWSWVRQPPGRGLEWIGYISYSGITTYNPSLKSRVTMLRDTSKNQFSLRLSSVTAADTAVYYCARSLARTTAMDYWGQGSLVTVSS
VL: DIQMTQSPSSLSASVGDRVTITCRASQDISSYLNWYQQKPGKAPKLLIYYTSRLHSGVPSRFSGSGSGTDFTFTISSLQPEDIATYYCQQGNTLPYTFGQGTKVEIKR
notes: IgG1; also called WT-IgG1; wild type humanized anti-IL-6 receptor antibody
With B4, the Kd in assay [1] stood at 3.1 nM; in assay [2], 1.9 nM. The koff in assay [1] turned out to be 0.0027 s⁻¹; in assay [2] it was 0.00094 s⁻¹; in assay [3], 0.00025 s⁻¹; in assay [4], 0.00025 s⁻¹. Further, the results for the kon in assay [1] and in assay [2] were 890000 M⁻¹ s⁻¹ and 490000 M⁻¹ s⁻¹, respectively. Also, in assay [5], the “KD (pH 5.8)/KD (pH 7.4)” value was found to be 2.4.
